In patent US6458355 (Genentech, dated 2002):

Target: T1, recombinant human IL-8, (ser-IL-8)72 (human, UniProt P10145 28-99)
T1 construct: mature; also called human wild type IL-8; wt IL-8
T1 sequence (looked up): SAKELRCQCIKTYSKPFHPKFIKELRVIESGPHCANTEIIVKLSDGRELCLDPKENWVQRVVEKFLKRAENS
Assay: competition of 125I-IL-8 binding to human neutrophils

fold reduction in binding affinity (against the chimeric F(ab)): 5.5 fold
B1: humanized 6G425 F(ab)-1 (Fab, V domains shown)
VH: EVQLVESGGGLVQPGGSLRLSCAASGYSFSSHYMHWVRQAPGKGLEWVGYIDPSNGETTYNQKFKGRFTISRDNSKNTLYLQMNSLRAEDTAVYYCARGDYRYNGDWFFDVWGQGT
VL: DIQMTQSPSSLSASVGDRVTITCRSSQSLVHGIGNTYLHWYQQKPGKAPKLLIYKVSNRFSGVPSRFSGSGSGTDFTLTISSLQPEDFATYYCSQSTHVPLTFGQGTKVEIKR
notes: Fab with human kappa subgroup I light and human IgG1 subgroup III heavy chain (pEMX1); CDR swap; also called version 1; V1
